The target of assay [1] is IHF peptide of H. influenzae (Haemophilus influenzae). Description: Kd at pH 5.5 (Octet biosensor per Example 1).
Assay [2] has the same target. The assay is described as follows: Kd at pH 7.5 (Octet biosensor per Example 1).
For assay [3] the target is unchanged. Description: Kd at pH 6.5 (Octet biosensor per Example 1).
The target is the same in assay [4]. Description: Kd at pH 4.5 (Octet biosensor per Example 1).

B1: TRL295 (antibody, V domains shown)
VH: QVQLVESGGGLVQPGGSLRLSCAASGFPFSSYAMSWVRQAPGKGLEWVSAISGNGADSYYADSVKGRFTTSRDKSKNTVYLQMNRLRAEDTAVYYCAKDMRRYHYDSSGLHFWGQGTLVTVSS
VL: DIELTQAPSVSVYPGQTARITCSGDALPKQYAYWYQQKPGQAPVVVIYKDSERPSGISERFSGSSSGTTVTLTISGVQAGDEADYYCQSVDTSVSYYVVFGGGTKLTVL
Regarding B1, the Kd in assay [1] was 2.8 nM; in assay [2] it was 4.2 nM; in assay [3] it was 2.8 nM; in assay [4] it was 3.7 nM.

These data come from patent US20220259294A1.
